Reference: IntAct's records for PubMed 24705553

B1: Autophagy-related protein 34 (Saccharomyces cerevisiae), Q12292 (parent)
chain: MKIAVETTLFDFFVIDQFKKSTFSAPNTKVDTIKGCINKFIEQFNVYDEQHIFWQPPGKSNVRLLSNANDFGQLGNFLHKKIKCNIFIGEEALRKYDLNICGPYDKFVENSDPSVKKVVNRDDVMLSRKCLNIISEQLSILEKSISKAQNQVLQSSEVEGKKCIILPEDKPELIKFFSKFETSVQLQEVYEGYKVYEKLLQKFGGQKKRMESFLNENTPMSGAEAIKQINISEELKEKGERLTTPNDPLLHVEVSNEDNSLHFILYNKTNIIIPGNCTFEFSSQISEVFSIKMGPHEIGIKGQKELWFFPSLPTPLSNYTMKVVNQDGETILVGKCADSNEITLKSPLASFSTGSFQTGSFHTLQDPTNVFRADALSSPDESSIMSTPFLGETDEVYNSGSTLSRPFTWEEI
partner: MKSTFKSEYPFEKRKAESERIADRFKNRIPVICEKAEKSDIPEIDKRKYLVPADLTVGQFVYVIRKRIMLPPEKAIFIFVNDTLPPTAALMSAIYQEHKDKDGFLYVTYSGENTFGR
B2: Autophagy-related protein 19 (Saccharomyces cerevisiae), P35193 (parent)
chain: MNNSKTNQQMNTSMGYPLTVYDECNKFQLIVPTLDANIMLWCIGQLSLLNDSNGCKHLFWQPNDKSNVRILLNNYDYGHLFKYLQCQRKCSVYIGEGTLKKYNLTISTSFDNFLDLTPSEEKESLCREDAHEDPVSPKAGSEEEISPNSTSNVVVSRECLDNFMKQLLKLEESLNKLELEQKVTNKEPNHRISGTIDIPEDRSELVNFFTELKTVKQLEDVFQRYHDYERLSQECDSKTEIASDHSKKETKIEVEPPNERSLQITMNQRDNSLYFQLFNNTNSVLAGNCKLKFTDAGDKPTTQIIDMGPHEIGIKEYKEYRYFPYALDLEAGSTIEIENQYGEVIFLGKYGSSPMINLRPPSRLSAESLQASQEPFYSFQIDTLPELDDSSIISTSISLSYDGDDNEKALTWEEL
partner: B1 partner

Variants of: B1
Details: with atg8_yeast ATG8, P38182

effect of a mutation on the interaction | Variant
disrupting interaction strength | W409A

Variants of: B2
Details: with atg8_yeast ATG8, P38182

effect of a mutation on the interaction | Variant
decreasing interaction strength | F376A;F379A;P385A;E386A;W412A
decreasing interaction strength | F376A;F379A;W412A
decreasing interaction strength | F376A;F379A

Variants of: B2
Details: with atg8_yeast ATG8, P38182
Remark: another data set of the same source

effect of a mutation on the interaction | Variant
disrupting interaction strength | F376A;F379A;P385A;E386A;W412A
decreasing interaction strength | F379A;W412A
decreasing interaction strength | P385A;E386A;W412A

Variants of: B2
Details: with atg8_yeast ATG8, P38182
Remark: another data set of the same source

effect of a mutation on the interaction | Variant
disrupting interaction strength | F376A;F379A;W412A

Variants of: B2
Details: with atg8_yeast ATG8, P38182
Remark: another data set of the same source

effect of a mutation on the interaction | Variant
decreasing interaction strength | W412A
